From paper PMC2943563

Biological target: myc-tagged murine CARD11 L225LI (murine) (UniProt Q8CIS0)
Assay: co-IP

Question: “myc-tagged murine CARD11 L225LI (from UniProt Q8CIS0 1-1159) (natural protein)” was tested. Which fold increase in apparent oligomerization against wild-type CARD11 did it give?
Answer: 3 fold
